{"source": "IntAct's records for PubMed 23976881", "parents": {"B1": {"name": "Heterogeneous nuclear ribonucleoprotein L (Homo sapiens), P14866-1 (parent)", "chain": "MSRRLLPRAEKRRRRLEQRQQPDEQRRRSGAMVKMAAAGGGGGGGRYYGGGSEGGRAPKRLKTDNAGDQHGGGGGGGGGAGAAGGGGGGENYDDPHKTPASPVVHIRGLIDGVVEADLVEALQEFGPISYVVVMPKKRQALVEFEDVLGACNAVNYAADNQIYIAGHPAFVNYSTSQKISRPGDSDDSRSVNSVLLFTILNPIYSITTDVLYTICNPCGPVQRIVIFRKNGVQAMVEFDSVQSAQRAKASLNGADIYSGCCTLKIEYAKPTRLNVFKNDQDTWDYTNPNLSGQGDPGSNPNKRQRQPPLLGDHPAEYGGPHGGYHSHYHDEGYGPPPPHYEGRRMGPPVGGHRRGPSRYGPQYGHPPPPPPPPEYGPHADSPVLMVYGLDQSKMNCDRVFNVFCLYGNVEKVKFMKSKPGAAMVEMADGYAVDRAITHLNNNFMFGQKLNVCVSKQPAIMPGQSYGLEDGSCSYKDFSESRNNRFSTPEQAAKNRIQHPSNVLHFFNAPLEVTEENFFEICDELGVKRPSSVKVFSGKSERSSSGLLEWESKSDALETLGFLNHYQMKNPNGPYPYTLKLCFSTAQHAS"}}, "data": [{"variants_of": "B1", "conditions": "with roa2_human HNRNPA2B1, P22626", "values": [{"variant": "Y359D", "effect of a mutation on the interaction": "increasing interaction strength"}]}]}
